Consider five molecules from US20230149558A1, “DUOCARMYCIN DERIVATIVE AND USE THEREOF” (The University of Tokyo, priority 2020, published 2023).

In test [1] the test system is CEACAM5-positive MKN45 cells. Put plainly: In vitro cytotoxicity test using CEA-V2122 and anticancer agent-labeled modified biotin (Cell Counting Kit-8). Type of test: cell-based, human. As to conditions: complex of CEA-V2122 and Compound 5, molar ratio 1:2; 1.0E-11 to 6.0E-07 final molar concentration; 48 hours; FIG. 8. On the procedure:
(§1) A cytotoxicity test was carried out using an anticancer agent-labeled modified biotin. The anticancer agent-labeled modified biotin is a compound described as Compound 5. For the assay, first, CEACAM5-positive MKN45 cells and CEACAM5-negative DLD1 cells were seeded on a 96-well plate for cell culture, so that the cell count became 5×10^3 cells/well and the amount of the culture solution became 50 μL/well, and thereafter, the cells were cultured overnight. A solution containing a complex of CEA-V2122 and a […] modified biotin was prepared by mixing CEA-V2122 and Compound 5 to a molar ratio of 1:2, and then incubating the mixture at room temperature for 10 minutes. […]
(§2) To the cells that had been cultured overnight, the complex serial dilution solutions were added in an amount of 50 μL/well to each well of the plate to the final molar concentration (1.0E-11, 3.0E-11, 9.1E-11, 2.7E-10, 8.2E-10, 2.5E-09, 7.4E-09, 2.2E-08, 6.7E-08, 2.0E-07, and 6.0E-07). […] The dosage and administration were determined by the instruction manuals included with the kit, and after the addition of the reagent, the mixture was incubated for 1.5 hours at 37° C. in a CO2 incubator. Thereafter, the absorbance at 450 nm was measured, and a mean value was then calculated, followed by background collection. […]
In general terms: Tetrazolium assays rely on reduction of a dye to a coloured formazan, in cell work by metabolically active cells.

Test [2] deals with CEACAM5-negative DLD1 cells. The description is as above. The class given is cell-based, human. As to conditions: complex of CEA-V2122 and Compound 5, molar ratio 1:2; 1.0E-11 to 6.0E-07 final molar concentration; 48 hours; FIG. 8. On the procedure: as §1, §2
The subject of a further test is HeLa S3 cells. Put plainly: Cytotoxicity of Duocarmycin SA and Duocarmycin SA-Valine (Cell Counting Kit-8). Type of test: cell-based. The conditions noted are these: 1.0E-11 to 6.0E-07, 48 hours, FIG. 11. On the procedure:
In order to confirm the activities of Compound X (Duocarmycin SA) and Compound Y (Duocarmycin SA-Valin) shown in FIG. 9 and FIG. 10, cytotoxicity was confirmed using HeLa S3 cells.
The cells were seeded on a 96-well plate for cell culture, so that the cell count became 5×10^3 cells/well and the amount of the culture solution became 50 μL/well, and thereafter, the cells were cultured overnight. The concentration of Compound X or Compound Y was adjusted with a culture solution, so that the final concentration thereof became 600 nM. […]
The medium used in the overnight culture of the cells was exchanged with the prepared agent-diluted solution, and the cells were then cultured for 48 hours. […] The dosage and administration applied in the assay were determined in accordance with the instruction manuals included with the kit, and after addition of the reagent, the mixture was incubated for 1.5 hours at 37° C., in a CO2 incubator. Thereafter, the absorbance at 450 nm was measured, and a mean value was then calculated, followed by background collection. The control was set to be 100%, and the ratio of the cell growth under each condition to the control was calculated. […]

For test [3], the target named is T1, Recombinant Human CEACAM-5/CD66e Protein, CF (R & D SYSTEMS) (human, UniProt P06731 35-685).
T1 construct: Bought recombinant protein, immobilized on a CM5 chip by amine coupling (279 RU); also called antigen CEACAM5
T1 sequence (looked up): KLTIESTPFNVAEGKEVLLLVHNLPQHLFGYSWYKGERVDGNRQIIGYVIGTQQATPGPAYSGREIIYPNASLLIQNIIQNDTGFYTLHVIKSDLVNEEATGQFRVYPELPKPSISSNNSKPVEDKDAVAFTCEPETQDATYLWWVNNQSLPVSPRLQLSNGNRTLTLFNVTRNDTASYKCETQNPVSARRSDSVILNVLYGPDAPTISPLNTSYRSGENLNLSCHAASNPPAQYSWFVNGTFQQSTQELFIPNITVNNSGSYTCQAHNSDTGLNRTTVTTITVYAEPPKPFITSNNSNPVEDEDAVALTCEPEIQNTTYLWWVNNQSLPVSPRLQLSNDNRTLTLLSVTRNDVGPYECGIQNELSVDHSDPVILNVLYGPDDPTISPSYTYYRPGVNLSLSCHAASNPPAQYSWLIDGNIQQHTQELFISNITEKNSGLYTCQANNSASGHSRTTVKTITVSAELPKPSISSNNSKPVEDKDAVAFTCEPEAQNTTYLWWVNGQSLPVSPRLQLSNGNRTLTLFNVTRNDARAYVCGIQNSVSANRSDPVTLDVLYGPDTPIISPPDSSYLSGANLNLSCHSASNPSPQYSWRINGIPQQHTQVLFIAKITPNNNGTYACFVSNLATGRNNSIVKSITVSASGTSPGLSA
Put plainly: SPR, Biacore T200; CEACAM5 immobilized on CM5 chip, CEA-V2122 as analyte; single-cycle kinetics, bivalent analysis fit, KD=kd1/ka1. As to the method:
(§3) The affinity of CEA-V2122 for the antigen CEACAM5 was evaluated using a surface plasmon resonance (SPR) measuring device, Biacore T200 (GE Healthcare Life Sciences). Specifically, Recombinant Human CEACAM-5/CD66e Protein, CF (R & D SYSTEMS) was immobilized on Sensor Chip CM5 (GE Healthcare Life Sciences) using an amine-coupling kit (GE Healthcare Lite Sciences). The final amount of the ligand immobilized was 279 RU. Moreover, about the purified CEA-V2122, two-fold serial dilutions from 1E-08 to 6.25E-10 M were prepared as analytes. Regarding interaction analysis, data were obtained by single-cycle kinetics analysis.

The target in a further test is T2, CEACAM5 (Homo sapiens, UniProt P06731).
T2 construct: endogenous in cells; host or cells: MKN-45 (CEACAM5-positive); DLD1 (CEACAM5-negative control)
T2 sequence (P06731 35-685 limits assumed): T1 sequence (looked up)
Kind of test: Cell staining of CEACAM5-expressing cell line using FITC-labeled CEA-V2122. The class given is cell-based. As to the method: In order to stain a CEACAM5 expression-positive cancer cell line, FITC labeling was carried out on the cell line, using 100 μg of a purified CEA-V2122 protein. Specifically, labeling was carried out using Fluorescein Labeling Kit—NH2 (DOJINDO LABORATORIES) in accordance with the dosage and administration described in the operating manual included with the kit, and the obtained product was defined to be CEA-V2122-FITC. Specific staining of the CEACAM5 expression-positive cancer cell line is as follows. That is, CEACAM5-positive human stomach cancer-derived MKN-45 cells and CEACAM5-negative human colon cancer-derived DLD1 cells were each seeded on a CELLSTAR, μClear, 96-well plate (Greiner) to a cell density of 2.0×10^4 cells/well, and thereafter, the cells were cultured overnight. Subsequently, a culture solution containing 20 nM CEA-V2122-FITC and 1 μM Hoechist was added to the 96-well plate to a concentration of 100 μL/well, and the obtained mixture was then reacted at 4° C. for 30 minutes. Thereafter, each image was taken using In Cell Analyzer 6000 (GE Healthcare Life Sciences).

Test [4] concerns the target T3, Recombinant Human CEACAM-5/CD66e Protein (Homo sapiens, UniProt P06731).
T3 construct: purchased R & D SYSTEMS
T3 sequence (P06731 35-676): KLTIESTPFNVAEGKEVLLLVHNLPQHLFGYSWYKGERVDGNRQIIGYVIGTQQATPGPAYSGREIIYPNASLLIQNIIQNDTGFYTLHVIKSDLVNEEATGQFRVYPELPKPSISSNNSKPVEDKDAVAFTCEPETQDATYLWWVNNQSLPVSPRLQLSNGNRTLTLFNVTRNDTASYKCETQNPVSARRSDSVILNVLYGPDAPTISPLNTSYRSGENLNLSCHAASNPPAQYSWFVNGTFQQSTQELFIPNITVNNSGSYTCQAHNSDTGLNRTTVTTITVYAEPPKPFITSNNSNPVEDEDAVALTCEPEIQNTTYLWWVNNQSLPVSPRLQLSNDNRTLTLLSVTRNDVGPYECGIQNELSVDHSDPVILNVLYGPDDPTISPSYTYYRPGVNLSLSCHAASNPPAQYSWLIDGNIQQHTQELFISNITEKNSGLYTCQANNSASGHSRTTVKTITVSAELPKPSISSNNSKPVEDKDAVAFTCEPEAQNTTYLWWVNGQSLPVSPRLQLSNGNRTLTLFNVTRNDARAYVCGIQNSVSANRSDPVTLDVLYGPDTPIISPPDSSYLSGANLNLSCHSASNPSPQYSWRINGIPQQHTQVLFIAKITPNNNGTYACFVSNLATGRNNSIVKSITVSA
Put plainly: SPR (Biacore T200) affinity of CEA-V2122 for the antigen CEACAM5. The class given is binding. On the procedure: as §3, with “analysis. Using Biacore T200 Evaluation Software, version 2.0, the obtained data were subjected to curve fitting in a bivalent analysis mode, and the following values were obtained: ka1−3.208E+5, and kd1=3.461E-7.” for “analysis.”
On the technique in general: SPR reads the build-up and loss of mass on a sensor chip optically.

Setting [5] is: CEACAM5 immobilized on Sensor Chip CM5 (279 RU), single-cycle kinetics, bivalent analysis mode.

For `COC(=O)c1cc2c([nH]1)C(=O)C=C1N(C(=O)c3cc4cc(OC)c(OCCNC(=O)[C@@H](NC(=O)[C@H](C)NC(=O)OCCOCCOCCn5cc(CCC(=O)NCCOCCOCCN(CC(=O)NCCCCNC(=O)CCCC[C@@H]6SC[C@@H]7NC(=N)N[C@@H]76)CC(=O)NCCCCNC(=O)CCCC[C@@H]6SC[C@@H]7NC(=N)N[C@@H]76)nn5)C(C)C)c(OC)c4[nH]3)C[C@H]3CC123` (stereo partly drawn) [Compound 5], the “cell growth ratio to control” value in test [1] is given as “suppression of the cell growth of the CEACAM5-positive MKN45 cells was confirmed in a complex concentration-dependent manner”; in test [2] it was “such a concentration-dependent effect of suppressing the cell growth of the CEACAM5-negative DLD1 cells was not confirmed”. As to Duocarmycin SA-Valine, the “effect of suppressing cell growth (ratio of cell growth to control)” value in the test with HeLa S3 cells was “higher effect of suppressing cell growth than Duocarmycin SA”.

B1: CEA-V2122 (scFv)
chain: QVKLEQSGAEVVKPGASVKLSCKASGFNIKDSYMHWLRQGPGQRLEWIGWIDPENGDTEYAPKFQGKATFTTDTSANTAYLGLSSLRPEDTAVYYCNEGTPTGPYYFDYWGQGTLVTVSSGGGGSGGGGSGGGGSENVLTQSPSSMSVSVGDRVNIACSASSSVPYMHWLQQKPGKSPKLLIYLTSNLASGVPSRFSGSGSGTDYSLTISSVQPEDAATYYCQQRSSYPLTFGGGTKLEIKGGGGSGGGGAEAGITGTWSDQLGDTFIVTAGADGALTGTYENAVGGAESRYVLTGRYDSAPATDGSGTALGWTVAWKNNSKNAHSATTWSGQYVGGADAKINTQWLLTSGTTNANAWKSTLVGHDTFTKVKPSAASHHHHHH
notes: Fusion of an anti-CEACAM5 scFv with the mutant streptavidin V2122; also called scFv-V2122; CEA-V2122 fusion protein
In the case of B1, the Kd in test [3] turned out to be 1.08 pM.

B2: CEA-V2122-FITC: purified CEA-V2122 protein labeled using Fluorescein Labeling Kit—NH2 (protein)
chain: B1 chain
As to B2, in the test with CEACAM5 (20 nM CEA-V2122-FITC, 4° C. for 30 minutes, CEACAM5-positive MKN-45 vs CEACAM5-negative DLD1 cells, FIG. 5), the “stained cell images (recognition of CEACAM5)” value is given as “specifically recognizes CEACAM5 on the surface of the cell membrane”. Further, the “time-series stained MKN45 cell images (localisation after binding)” value in the test with CEACAM5 (MKN45 cells, time-series data, FIG. 6) was “the CEACAM5 stays on the surface of the cell membrane”.

B3: CEA-V2122: scFv-type anti-CEACAM5 antibody bound with mutant streptavidin V2122 via an amino acid linker (GGGGSGGGG), SEQ ID NO: 3 (protein)
chain: B1 chain
For B3, in test [4] (setting [5]), the ka1 turned out to be 3.208E+5 and the kd1 amounted to 3.461E-7. In addition, the “KD=kd1/ka1” value in test [4] (bivalent analysis, KD=kd1/ka1) stood at 1.078E−12.
